Assay results from article PMC3602593.

The substances below were run against DARPin H10-2-G3 (assay: SPR; G3 DARPin amine-coupled (about 1,200 RU) on a GLC chip, ProteOn XPR36; HER2 constructs injected as analyte (One-Shot Kinetics, 30 uL/min, 120 s); 25°C; HBS-EBP+ (10 mM HEPES, 150 mM NaCl, 3 mM EDTA, 0.1% BSA, 0.05% Tween 20); global fit to a 1:1 model, KD = kd/ka).

Row | Substance | Kd | koff | kon
1 | HER2 extracellular domain, residues 1-623, Phe 555→Ala (from UniProt P04626 23-645) (domain or fragment) | 210 nM | 0.0384 s⁻¹ | 184000 M⁻¹ s⁻¹
2 | HER2 extracellular domain, residues 1-623, Ser 551→Ala (from UniProt P04626 23-645) (domain or fragment) | 12.8 nM | 0.0035 s⁻¹ | 285000 M⁻¹ s⁻¹
3 | HER2 extracellular domain, residues 1-623, Val 552→Ala (from UniProt P04626 23-645) (domain or fragment) | 380 nM | 0.064 s⁻¹ | 169000 M⁻¹ s⁻¹

Further substances by falling Kd, results first:

Row | Kd | koff | kon | Substance
4 | 265 nM | 0.0393 s⁻¹ | 149000 M⁻¹ s⁻¹ | HER2 extracellular domain, residues 1-623, Leu 525→Ala (from UniProt P04626 23-645) (domain or fragment)
5 | 3.3 nM | 0.00107 s⁻¹ | 322000 M⁻¹ s⁻¹ | human epidermal growth factor receptor 2 (HER2) extracellular domain, residues 1-623, wild type (from UniProt P04626 23-645) (domain or fragment)
